# From patent publication US20250002583A1 (PERSONGEN BIOTHERAPEUTICS SUZHOU, published 2025)
# T1: B7-H3 (CD276) Protein, Human, Recombinant (His Tag) (Human, UniProt Q5ZPR3 29-461, limits assumed)
# T1 construct: Bought protein; also called CD276-His recombinant protein; CD276 recombinant protein; not shown: His tag
# T1 sequence (looked up): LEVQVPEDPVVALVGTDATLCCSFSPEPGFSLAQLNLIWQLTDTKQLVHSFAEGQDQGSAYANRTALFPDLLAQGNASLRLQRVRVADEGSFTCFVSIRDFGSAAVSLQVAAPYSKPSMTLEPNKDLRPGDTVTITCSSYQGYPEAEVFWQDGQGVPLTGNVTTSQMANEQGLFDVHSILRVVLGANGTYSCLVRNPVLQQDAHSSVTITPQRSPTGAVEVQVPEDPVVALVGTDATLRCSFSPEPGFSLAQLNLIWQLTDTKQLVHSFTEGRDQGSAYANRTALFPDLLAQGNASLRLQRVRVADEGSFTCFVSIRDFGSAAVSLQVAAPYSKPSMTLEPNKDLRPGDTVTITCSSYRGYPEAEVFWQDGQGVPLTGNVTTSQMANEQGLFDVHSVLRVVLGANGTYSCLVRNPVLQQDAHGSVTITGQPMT
# Target: T1, B7-H3 (CD276) Protein, Human, …
# Assay: SPR (BiaCore T200), CD276 recombinant protein amine-coupled on CM5 chip, antibody as analyte
Binder,Kd [nM],koff [s⁻¹],kon [M⁻¹ s⁻¹]
"CD276 Chimeric (antibody, V domains shown, Murine variable regions cloned into pcDNA3.1-IgG1Fc (heavy) and pcDNA3.1-IgKc (light); also called human-mouse chimeric antibody; human-murine chimeric antibody) VH: EVTLVESGGGLVKPGGSLKLSCAASGFTFSTYVMSWVRQTPEKRLEWVASILSGGTSFYADNVKGRFTISRENARNILYLQMSSLKSEDTAMYYCVRRYGHDHYYAMDYWGQGTSVTVSS VL: QIVLTQSPANMSASLGERVTMTCAASSSVSSSYLHWYQQKPGSSPKLWIYSTSNLASGVPGRFNGSGSGTSYSLTISSMEAEDAATYYCHQYHRSPWTFGGGTKLEIK",70.8,0.00258,36400
"CD276T1H1-T1L1 (antibody, V domains shown, Heavy chain variable region cloned into pcDNA3.1-IgG1Fc and light chain variable region into pcDNA3.1-IgKc (IgG1, kappa); also called humanized CD276 antibody (CD276T1H1-T1L1); CD276 humanized antibody) VH: EVQLVESGGGLIQPGGSLRLSCAASGFTFSTYVMSWVRQAPGKGLEWVSSILSGGTSFYADNVKGRFTISRDNSKNTLYLQMNSLRAEDTAVYYCARRYGHDHYYAMDYWGQGTLVTVSS VL: EIVLTQSPATLSLSPGERATLSCAASSSVSSSYLHWYQQKPGLAPRLLIYSTSNLASGIPDRFSGSGSGTDFTLTISRLEPEDFAVYYCQQYHRSPWTFGGGTKVEIK",114,0.00282,24800
"CD276T2H1-T2L1 (antibody, V domains shown, Heavy chain variable region cloned into pcDNA3.1-IgG1Fc and light chain variable region into pcDNA3.1-IgKc (IgG1, kappa)) VH: EVQLVESGGGVVRPGGSLRLSCAASGFTFSTYVMSWVRQAPGKGLEWVSSILSGGTSFYADNVKGRFTISRDNAKNSLYLQMNSLRAEDTALYHCARRYGHDHYYAMDYWGQGTTVTVSS VL: DIQMTQSPSTLSASVGDRVTITCAASSSVSSSYLHWYQQKPGKAPKLLIYSTSNLASGVPSRFSGSGSGTEFTLTISSLQPDDFATYYCQQYHRSPWTFGQGTKLEIK",72.8,0.00289,39700
